In patent US20180043014A1 (CELLDEX THERAPEUTICS, published 2018):

Biological target: T1, CG56972-ECD, recombinant human GPNMB extracellular domain (aa 23-480), GPNMB-V5His (human, UniProt Q14956 23-492)
T1 construct: Expressed in HEK293 cells; also called GPNMB-V5His immunogen; purified CG56972-ECD protein; not shown: The tag would matter only for the xV5 reagent, not for the anti-GPNMB antibodies
T1 sequence: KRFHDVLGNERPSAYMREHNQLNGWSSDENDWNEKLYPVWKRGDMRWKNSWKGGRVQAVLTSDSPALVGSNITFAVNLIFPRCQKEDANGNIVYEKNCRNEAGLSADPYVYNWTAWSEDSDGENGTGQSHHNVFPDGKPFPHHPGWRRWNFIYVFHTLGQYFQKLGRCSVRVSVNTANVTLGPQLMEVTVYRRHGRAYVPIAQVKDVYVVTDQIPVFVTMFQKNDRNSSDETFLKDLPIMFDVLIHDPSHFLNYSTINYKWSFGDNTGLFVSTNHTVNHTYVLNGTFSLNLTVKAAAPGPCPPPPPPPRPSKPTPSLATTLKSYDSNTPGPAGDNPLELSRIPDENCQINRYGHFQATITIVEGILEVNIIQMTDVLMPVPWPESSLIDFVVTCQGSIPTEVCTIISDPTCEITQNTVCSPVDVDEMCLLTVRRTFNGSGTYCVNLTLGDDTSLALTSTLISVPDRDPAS
Experiment: method not stated; purified CG56972-ECD protein

B1: CR011, fully human monoclonal antibody Mab 1.15.1 (IgG2) (antibody, V domains shown)
VH: QVQLQESGPGLVKPSQTLSLTCTVSGGSISSFNYYWSWIRHHPGKGLEWIGYIYYSGSTYSNPSLKSRVTISVDTSKNQFSLTLSSVTAADTAVYYCARGYNWNYFDYWGQGTLVTVSS
VL: not shown
notes: The unconjugated IgG2 form was used in flow cytometry; also called CR011 (anti-GPNMB)
Kd: 52 nM
